Reference: patent US20170128546A1

Experiments:
[1] = biological target: lysozyme variant 2-3-7 (human)
[2] = biological target: wild type human lysozyme (human) (UniProt P61626)
[3] = biological target: lysozyme variant 2-3-7 (human); remark: listed apart in the source

Substance: mucin
- IC50 - Mucin (µg/mL): concentration of polyanion that inhibits lytic activity of the enzyme on Micrococcus luteus by 50% [1]: 73 µg/mL
- IC50 - Mucin (µg/mL): concentration of polyanion that inhibits lytic activity of the enzyme on Micrococcus luteus by 50% [2]: 11 µg/mL
- fold increase in IC50 for mucin against WT-LYZ [3]: 6.91 fold
